Data taken from article doi:10.1101/2020.10.19.344200.

Molecular target: S. scrofa RNA polymerase II (transcribing, phosphorylated, on a DNA-RNA scaffold) (S. scrofa)
Assay: cryo-EM structure

- percent of Pol II particles with density for U1 snRNP: 17.5%
Substance: human U1 small nuclear ribonucleoprotein particle (from UniProt P08621;P09012;P09234) (complex)
